From patent US20160312212A1 (ROCHE SEQUENCING SOLUTIONS, published 2016) come the findings set out here.

The target in the experiment is Thrombin (UniProt P00734 328-622). In words: SPR (Biacore X100), multiple-cycle kinetics; biotinylated peptide on streptavidin chip, thrombin 0 to 50 nM as analyte. The procedure: Two peptides were further prepared (synthesized and purified by Peptide 2.0) with the following sequences: a) Biotin—[…] GCG (SEQ ID NO:367) and b) Biotin—[…] (SEQ ID NO:368). The binding affinities of each peptide towards thrombin were tested on a Biacore X100 system.
In brief, 50 ul of 100 ug/ml of streptavidin (in 10 mM NaAc, 0.1 mM EDTA, 1 mM NaCl, 1 mM DTT pH 4.6) was immobilized onto a sensor chip CM5 that was pre-activated with NHS/EDC at a flow rate of 5 μl/min. After ethanolamine deactivation, biotinylated peptides (10 ng/ml) were injected and captured. Following the standard protocol for multiple-cycle kinetics, a series of injections of thrombin were then performed at 0 nM, 3.125 nM, 6.25 nM, 12.5 nM, 25 nM and 50 nM. After each injection, the sensor surface was regenerated for 2 min with 10 mM Glycine-HCl, pH 1.7 (from GE). The sensogram was recorded (see FIG. 5) and kinetic constants were derived by global fitting to a 1:1 Langmuir binding model using the BIAcore X100 Evaluation Software.
In general terms: Surface plasmon resonance follows binding to a sensor surface in real time, without labels.

Where no end group is shown, it is not given here. The star is where a group is joined. Biotin = O=C1N[C@H]2[C@H](CS[C@H]2CCCCC(=O)*)N1

B1: Biotin-GCTSVHQETKKYQSRDPGRLIFQSSYTYNYEHVDVWGCG (designed binder)
peptide: Biotin-GCTSVHQETKKYQSRDPGRLIFQSSYTYNYEHVDVWGCG
modifications: cysteine pairing not given here
notes: Synthetic peptide (Peptide 2.0), captured on a streptavidin CM5 chip; also called peptide a)
Regarding B1, the “fold change in KD against the linear peptide without cow antibody scaffold sequences (SEQ ID NO:368)” value is more than 40 fold.
